# Patent US9493781B2, “Synthetic brassica-derived chloroplast transit peptides” (DOW AGROSCIENCES LLC, priority 2012, dated 2016)
# Test system: Arabidopsis
# Assay: dgt-28, dgt-32, dgt-33, dgt-3, dgt-7 transformed Arabidopsis (T1, T2, T3) response to postemergence glyphosate, % visual injury
# Assay type: in vivo, Arabidopsis thaliana
# Conditions: 14 days after application
# Excerpt: Transgenic T1 Arabidopsis plants containing the dgt-28 transgene were sprayed with differing rates of glyphosate. Elevated rates were applied in this study to determine the relative levels of resistance (105, 420, 1,680 or 3,360 g ae/ha). A typical 1× usage rate of glyphosate that will control non-transformed Arabidopsis is 420 g ae/ha. […] The T1 Arabidopsis plants that were used in this study were variable copy number for the dgt-28 transgene. The low copy dgt-28 T1 Arabidopsis plants were self-pollinated and used to produce T2 plants.
# Results of Glyphosate Selection of Transformed dgt-28 Arabidopsis Plants. The Arabidopsis T1 transformants were first selected from the background of untransformed seed using a glufosinate selection scheme. Three flats or 30,000 seed were analyzed for each T1 construct. The T1 plants selected above were molecularly characterized and representative plants with variable copy number were subsequently transplanted to individual pots and sprayed with various rates of commercial glyphosate as previously described. The response of these plants is presented in terms of % visual injury 2 weeks after treatment (WAT). […] An arithmetic mean and standard deviation is presented for each construct used for Arabidopsis transformation. The range in individual response is also indicated in the last column for each rate and transformation. Wild-type, non-transformed Arabidopsis (c.v. Columbia) served as a glyphosate sensitive control.
# T2Arabidopsis Data. The second generation plants (T2) of selected T1 Arabidopsis events which contained low copy numbers of the dgt-28 transgene were further characterized for glyphosate tolerance. Glyphosate was applied as described previously. The response of the plants is presented in terms of % visual injury 2 weeks after treatment (WAT). […] An arithmetic mean and standard deviation are presented for each construct used for Arabidopsis transformation. The range in individual response is also indicated in the last column for each rate and transformation. Wild-type, non-transformed Arabidopsis (cv. Columbia) served as a glyphosate sensitive control. In the T2 generation hemizygous and homozygous plants were available for testing for each event and therefore were included for each rate of glyphosate tested. Hemizygous plants contain two different alleles at a locus as compared to homozygous plants which contain the same two alleles at a locus. Variability of response to glyphosate is expected in the T2 generation as a result of the difference in gene dosage for hemizygous as compared to homozygous plants. The variability in response to glyphosate is reflected in the standard deviation and range of response.
# T3 Arabidopsis Data. The third generation plants (T3) of selected T2 Arabidopsis events which contained low copy numbers of the dgt-28 transgene were further characterized for glyphosate tolerance. […] Glyphosate was applied as described previously. The response of the plants is presented in terms of % visual injury 2 weeks after treatment (WAT). […] An arithmetic mean and standard deviation are presented for each construct used for Arabidopsis transformation. The range in individual response is also indicated in the last column for each rate and transformation. Wild-type, non-transformed Arabidopsis (cv. Columbia) served as a glyphosate-sensitive control.
# [1] = Table 8, T1 Arabidopsis, 105 g ae/ha glyphosate
# [2] = Table 8, T1 Arabidopsis, 420 g ae/ha glyphosate
# [3] = Table 8, T1 Arabidopsis, 1680 g ae/ha glyphosate
# [4] = Table 8, T1 Arabidopsis, 3360 g ae/ha glyphosate
# [5] = Table 10, T1 Arabidopsis, 1,680 g ae/ha glyphosate
molecule,measurement,setting,value
"pDAB107527: TraP4 v2 - dgt-28 v5: binary construct TraP4 v2:dgt-28 v5 (SEQ ID NO:32) (nucleic acid, In-frame fusion of dgt-28 v5 and TraP4 v2) DNA: ATGCTTGCTAGACAAGGTGGAAGTCTGAGAGCTTCTCAATGCAACGCTGGACTTGCTAGAAGAGTTGAAGTTGGTGCTCTTGTTGTTCCTAGACCTATCTCTGTTAACGACGTTGTTCCTCACGTTTACTCTGCTCCACTTTCTGTTGCTAGAAGGTCTTGCTCTAAGTCCTCCATTAGGTCCACTAGAAGGCTTCAAACTACTGTGTGCTCTGCTGCAAGAGGGATGCCAGCCTTGTCTTTACCTGGATCAAAGAGTATCACAGCTAGGGCACTCTTTCTTGCTGCTGCTGCTGATGGGGTTACTACTTTGGTGAGGCCATTGAGAAGTGACGACACAGAAGGATTCGCTGAGGGGTTAGTTCGTTTAGGCTATCGTGTAGGGAGGACACCCGATACTTGGCAAGTCGATGGCAGACCACAAGGACCAGCAGTGGCTGAGGCTGACGTCTACTGTAGAGACGGAGCAACCACCGCTAGATTCTTGCCAACCTTAGCAGCTGCTGGTCACGGAACATACAGATTTGATGCTTCACCACAGATGAGGAGACGTCCTCTTTTGCCCTTAAGCAGAGCCTTGAGGGATTTGGGTGTCGATCTTAGACACGAAGAAGCTGAAGGTCATCACCCTCTGACTGTCCGTGCTGCTGGGGTTGAAGGAGGAGAGGTTACTTTGGATGCTGGTCAGTCAAGTCAGTATCTCACTGCCTTGTTGCTCCTTGGTCCCCTTACAAGACAAGGACTGAGGATAAGGGTTACTGATTTGGTGTCAGCACCATACGTGGAGATTACGCTTGCAATGATGAGGGCTTTCGGAGTTGAAGTGGCAAGGGAGGGAGATGTGTTCGTTGTTCCACCTGGTGGATATCGTGCAACTACGTATGCTATAGAACCCGACGCAAGTACTGCTTCTTACTTCTTCGCAGCTGCTGCTTTGACTCCTGGAGCTGAAGTGACTGTACCTGGGTTAGGCACGGGAGCACTTCAAGGAGATTTGGGATTTGTAGATGTCTTAAGGAGAATGGGAGCCGAGGTGTCCGTAGGAGCTGATGCAACCACTGTTAGAGGAACTGGTGAATTGCGTGGCCTTACAGCCAACATGAGAGACATAAGTGATACGATGCCGACCCTCGCTGCAATAGCACCCTTTGCTAGTGCTCCAGTTAGAATCGAGGATGTTGCCAACACTCGTGTCAAAGAATGTGACAGACTTGAGGCTTGTGCAGAGAACCTTAGGAGGTTGGGAGTAAGGGTTGCAACGGGTCCGGACTGGATTGAGATACACCCTGGTCCAGCTACTGGTGCTCAAGTCACAAGCTATGGTGATCACAGAATTGTGATGTCATTTGCAGTGACTGGACTTCGTGTGCCTGGGATCAGCTTCGACGACCCTGGCTGTGTTCGTAAGACTTTTCCTGGGTTTCACGAGGCTTTCGCAGAATTGAGGCGTGGCATTGGGAGCTGA",% Injury Ave,[1],3.8%
same,% Injury Range (%),[1],0-15%
same,No. plants with 20-40% injury,[1],0
same,No. plants with <20% injury,[1],4
same,No. plants with >40% injury,[1],0
same,% Injury Ave,[2],28.8%
same,% Injury Range (%),[2],0-65%
same,No. plants with 20-40% injury,[2],1
same,No. plants with <20% injury,[2],2
same,No. plants with >40% injury,[2],1
same,% Injury Ave,[3],55.0%
same,% Injury Range (%),[3],35-85%
same,No. plants with 20-40% injury,[3],2
same,No. plants with <20% injury,[3],0
same,No. plants with >40% injury,[3],2
same,% Injury Ave,[4],43.8%
same,% Injury Range (%),[4],30-70%
same,No. plants with 20-40% injury,[4],2
same,No. plants with <20% injury,[4],0
same,No. plants with >40% injury,[4],2
same,% Injury Ave,[5],55.0%
same,% Injury Range (%),[5],35-85%
same,No. plants with 20-40% injury,[5],2
same,No. plants with <20% injury,[5],0
same,No. plants with >40% injury,[5],2
